Measured values: paper PMC10349104, “Engineering broad-spectrum inhibitors of inflammatory chemokines from subclass A3 tick evasins” (Nature Communications, 2023)
Several values for one entry are separate records, joined by “and”; a condition that tells them apart may be missing. Equal entries are not always repeated.

Target: T1, EVA-AAM1001, C-terminally Avi-tagged and biotinylated (A. americanum, biotin on the AVI tag)
T1 chain: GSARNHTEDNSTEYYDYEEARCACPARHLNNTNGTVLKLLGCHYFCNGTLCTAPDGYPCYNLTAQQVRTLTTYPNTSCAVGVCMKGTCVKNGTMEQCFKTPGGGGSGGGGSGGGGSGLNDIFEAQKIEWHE
Assay: SPR
Conditions: both partners purified

Sequence of CCL11 (P51671 24-97): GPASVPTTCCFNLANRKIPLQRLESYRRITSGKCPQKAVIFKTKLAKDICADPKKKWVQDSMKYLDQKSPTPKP

| Binder | fold increase in affinity over wild type CCL11 [fold] | fold increase in affinity over wild type CCL7 [fold] |
| --- | --- | --- |
| CCL11(F11A) (ligand, also called CC + 1 residue-mutated CCL11; source: E. coli Rosetta-gami 2 (DE3), purified (His-Trap, SEC, RP-HPLC)) not shown | ~200 | – |
| CCL7(Y13A) (ligand, source: E. coli Rosetta-gami 2 (DE3), purified (His-Trap, SEC, RP-HPLC)) not shown | – | ~10000 |

What follows are binders tested against T2, EVA-4 (UniProt P0C8E9 24-127) (assay: not stated; Kd of EVA-4 for human chemokines, three readings (source data of Supplementary Fig. 7); method and conditions not told for EVA-4). Conditions: not given.
T2 sequence (looked up): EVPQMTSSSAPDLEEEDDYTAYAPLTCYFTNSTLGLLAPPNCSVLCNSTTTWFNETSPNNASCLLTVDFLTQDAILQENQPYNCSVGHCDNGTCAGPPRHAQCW

| Binder | Kd |
| --- | --- |
| CCL1 (ligand, human, UniProt P22362 24-96, looked up) KSMQVPFSRCCFSFAEQEIPLRAILCYRNTSSICSNEGLIFKLKRGKEACALDTVGWVQRHRKMLRHCPSKRK | 449 nM and 342 nM and 338 nM |
| CCL26 (ligand, human, UniProt Q9Y258 24-94, looked up) TRGSDISKTCCFQYSHKPLPWTWVRSYEFTSNSCSQRAVIFTTKRGKKVCTHPRKKWVQKYISLLKTPKQL | 56.5 nM and 69.6 nM and 86.6 nM |
| CCL24 (ligand, human, UniProt O00175 27-119, looked up) VVIPSPCCMFFVSKRIPENRVVSYQLSSRSTCLKAGVIFTTKKGQQFCGDPKQEWVQRYMKNLDAKQKKASPRARAVAVKGPVQRYPGNQTTC | 53.8 nM and 54.2 nM and 56.7 nM |
| CCL3 (ligand, human, UniProt P10147 24-92, looked up) SLAADTPTACCFSYTSRQIPQNFIADYFETSSQCSKPGVIFLTKRSRQVCADPSEEWVQKYVSDLELSA | 0.175 nM and 0.285 nM and 0.27 nM |
| CCL7 (ligand, source: E. coli Rosetta-gami 2 (DE3), purified (His-Trap, SEC, RP-HPLC)) not shown | 0.651 nM and 0.847 nM and 0.833 nM |
| CCL22 (ligand, human, UniProt O00626 25-93, looked up) GPYGANMEDSVCCRDYVRYRLPLRVVKHFYWTSDSCPRPGVVLLTFRDKEICADPRVPWVKMILNKLSQ | 8.49 nM and 8.53 nM and 8.35 nM |
| CCL8 (ligand, human, UniProt P80075 24-99, looked up) QPDSVSIPITCCFNVINRKIPIQRLESYTRITNIQCPKEAVIFKTKRGKEVCADPKERWVRDSMKHLDQIFQNLKP | 0.259 nM and 0.49 nM and 0.489 nM |
| CCL11 (ligand, source: E. coli Rosetta-gami 2 (DE3), purified (His-Trap, SEC, RP-HPLC)) not shown | 14.1 nM and 23.5 nM and 22.7 nM |
| CCL18 (ligand, human, UniProt P55774 21-89, looked up) AQVGTNKELCCLVYTSWQIPQKFIVDYSETSPQCPKPGVILLTKRGRQICADPNKKWVQKYISDLKLNA | 0.346 nM and 0.451 nM and 0.45 nM |
| CCL5 (ligand, human, UniProt P13501 24-91, looked up) SPYSSDTTPCCFAYIARPLPRAHIKEYFYTSGKCSNPAVVFVTRKNRQVCANPEKKWVREYINSLEMS | 6.07 nM and 5.93 nM and 6.16 nM |
| CCL17 (ligand, human, UniProt Q92583 24-94, looked up, source: E. coli Rosetta-gami 2 (DE3), purified (His-Trap, SEC, RP-HPLC)) ARGTNVGRECCLEYFKGAIPLRKLKTWYQTSEDCSRDAIVFVTVQGRAICSDPNNKRVKNAVKYLQSLERS | 282 nM and 283 nM and 285 nM |
